Columns and labels:
EGFR-ECD [1] = target: T1, EGFR-ECD (UniProt P00533 25-645); assay: BLI
EGFR-ECD [2] = target: T1, EGFR-ECD; assay: BLI; remark: listed apart in the source

koff (EGFR-ECD [1]): 0.00034 s⁻¹
kon (EGFR-ECD [1]): 350000 M⁻¹ s⁻¹
Kd (EGFR-ECD [2]): ~1 nM
B1: Anti-EGFR mAb (antibody, V domains shown)
VH: EVQLVESGGGLVQPGGSLRLSCAASGFSLTNRGVHWVRQAPGKGLEWVGVIWSGGNTDYNTPFTSRFTISRDNSKNTLYLQMNSLRAEDTAVYYCARALTYYDYEFAYWGQGTLVTVSS
VL: not shown

Source: article PMC5680790 (mAbs, 2017)
